As a reminder, the Kd is the free concentration of one partner at which half of the binding sites on the other are occupied at equilibrium, for simple one-to-one binding. A low value points to higher affinity.

What all share (assay): ITC; protein dialysed into 100 mM NaCl, 25 mM Tris-HCl (pH 8.0), 10 uM ZnCl2, 2 mM beta-mercaptoethanol; histone peptides with free PHD or PHD-HD1 complex; one-site model
Experiment [1] has as its target dPHD-HD1 complex (Drosophila Pygo PHD 747-808 with Lgs HD1 316-350) (Drosophila) (UniProt Q9V9W8).
Experiment [2] deals with hPHD-HD1 complex (hPygo1 PHD 333-402 with hBCL9 HD1) (human) (UniProt Q9Y3Y4).
Chain of hPHD-HD1 complex (hPygo1 PHD 333-402 with hBCL9 HD1) (human) (Q9Y3Y4 333-402, chain 1 of 2): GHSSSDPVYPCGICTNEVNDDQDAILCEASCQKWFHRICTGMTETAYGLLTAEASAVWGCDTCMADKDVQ
Chain of hPHD-HD1 complex (hPygo1 PHD 333-402 with hBCL9 HD1) (human) (O00512 177-205, chain 2 of 2, further chain): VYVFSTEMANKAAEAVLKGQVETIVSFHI
Experiment [3] has as its target hPygo1 PHD finger (amino acids 333-402), free (human) (UniProt Q9Y3Y4).

Chain of dPHD-HD1 complex (Drosophila Pygo PHD 747-808 with Lgs HD1 316-350) (Drosophila) (Q9V9W8 747-808, chain 1 of 2): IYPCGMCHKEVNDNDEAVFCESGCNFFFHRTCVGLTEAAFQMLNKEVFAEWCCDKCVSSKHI
Chain of dPHD-HD1 complex (Drosophila Pygo PHD 747-808 with Lgs HD1 316-350) (Drosophila) (Q961D9 316-350, chain 2 of 2, further chain): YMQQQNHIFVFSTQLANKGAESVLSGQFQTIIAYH
Chain of hPygo1 PHD finger (amino acids 333-402), free (human) (Q9Y3Y4 333-402): as the sequence (Q9Y3Y4 333-402, chain 1 of 2) above

“H3K4me3 15-mer histone H3 tail peptide (from UniProt P68431 2-16)”: the Kd in experiment [1] was 23 µM.
Consider “H3K4me1 15-mer histone H3 tail peptide (from UniProt P68431 2-16)”, for which the results for the Kd in experiment [2], in experiment [3] and in experiment [1] were 2.9 µM, 9 µM and 22 µM, respectively.
Consider “H3K4me2 15-mer histone H3 tail peptide (from UniProt P68431 2-16)”, for which the figures for the Kd in experiment [2], in experiment [3] and in experiment [1] were 0.9 µM, 2.4 µM and 13 µM, respectively.
